Substrate: CCCCCCCCCCCC(=O)O
Test: initial rates of substrate consumption by GC, Hill fit
Type: biochemical, Alicyclobacillus acidocaldarius
Conditions: excess H2O2, pH 7.4, 28 °C, Hill n 2.1 ± 0.8
Text: initial rates of substrate consumption by GC, Hill fit on CYP-Aa162

B1: CYP-Aa162 (Alicyclobacillus acidocaldarius LAA1) (protein)
chain: MNQCIPRDRTFDSSLALIKEGYLFIKNRVDQYQSDIFEARLLLENVVCMHGAEAAKLFYNTELFQRQGALPKRVQKTLFGENAIQTLDGTAHLHRKQLFLSLLTPDQEKSLATLATTQWRECAKVWENADRVVLFEEAKRMLCRIACQWTGVPLDESEVSKRADDFGAMVDAFGAVGPRHWKGRRARARAEAWLRQMIDEIRIGLRSVDEHTPLHVVAFWRDVNGNLLDAQMVAIELINLLRPIVAISTFITFSALALHEHPTWRDRLKARNEADIEMFVQEVRRYYPFAPFLGARVKKDFVWRGYEFKRGTLVLLDVYGTHHDARLWDSPNEFRPERFMRKTVGPFDLIPQGGGDSHTGHRCPGEGATIEIMKASVDFLVNQIDFEVPAQDLSYRLDVMPTLPKSGFVLTHVHRKFIASPTIATPNGSEALPSEV
  K0.5: 93.1 ± 37.7 µM
  kcat: 0.768 ± 0.285 s⁻¹
  kcat/Km: 8330 M⁻¹ s⁻¹

Source: paper PMC5588734, “In vitro oxidative decarboxylation of free fatty acids to terminal alkenes by two new P450 peroxygenases” (Biotechnology for Biofuels, 2017)
